Where “and” joins values, the source holds several entries; their conditions need not be identical. Equal entries are not always repeated. Where two headings read alike, the source gives them in different places. One block for each substance: values may come before it.
How the values were obtained:
[1] = molecular target: soluble recombinant CD80 (sCD80), sCD80his after removal of the carboxy-terminal oligo-histidine tag (human); test: SPR
CTLA-4 Ig (human) [2] = molecular target: CTLA-4 Ig (human) (UniProt P16410); test: SPR
CD28 Ig [3] = molecular target: CD28 Ig (UniProt P10747); test: SPR
CTLA-4 Ig (human) [4] = molecular target: CTLA-4 Ig (human) (UniProt P16410); test: SPR; remark: listed apart in the source
CD28 Ig [5] = molecular target: CD28 Ig (UniProt P10747); test: SPR; remark: listed apart in the source
CTLA-4 Ig (human) [6] = molecular target: CTLA-4 Ig (human) (UniProt P16410); test: SPR; remark: listed apart in the source
CD28 Ig [7] = molecular target: CD28 Ig (UniProt P10747); test: SPR; remark: listed apart in the source
CTLA-4 Ig (human) [8] = molecular target: CTLA-4 Ig (human) (UniProt P16410); test: pull-down
CTLA-4 Ig (human) [9] = molecular target: CTLA-4 Ig (human) (UniProt P16410); test: SPR; remark: listed apart in the source
CD28 Ig [10] = molecular target: CD28 Ig (UniProt P10747); test: SPR; remark: listed apart in the source

CTLA-4 Ig, sequence (P16410 37-161): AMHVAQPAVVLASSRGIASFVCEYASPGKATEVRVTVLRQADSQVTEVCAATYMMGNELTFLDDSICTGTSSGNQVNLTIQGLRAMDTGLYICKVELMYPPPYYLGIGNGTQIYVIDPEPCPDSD

fold higher avidity than CD28 Ig [1]: > 100 fold
Substance: CTLA-4 Ig (from UniProt P16410 37-161) (Fc fusion)

Kd (CTLA-4 Ig (human) [2]): 400 nM
response at 0.26 μM sCD80 (CTLA-4 Ig 1,500 RUs), beginning of the experiment (CTLA-4 Ig (human) [2]): 255 RU
response at 0.26 μM sCD80 (CTLA-4 Ig 1,500 RUs), end of the experiment (CTLA-4 Ig (human) [2]): 250 RU
t1/2 of dissociation (high CTLA-4 Ig level, 20 μl/min) (CTLA-4 Ig (human) [2]): 4.8 s
t1/2 of dissociation (high CTLA-4 Ig level, 40 μl/min) (CTLA-4 Ig (human) [2]): 4.4 s
t1/2 of dissociation (low CTLA-4 Ig level, 20 μl/min) (CTLA-4 Ig (human) [2]): 2.2 s
t1/2 of dissociation (low CTLA-4 Ig level, 40 μl/min) (CTLA-4 Ig (human) [2]): 2.35 s
Kd (CD28 Ig [3]): 4.1 µM and 4.3 µM
response at 0.82 μM sCD80 (CD28 Ig 7800 RUs), beginning of the experiment (CD28 Ig [3]): 160 RU
t1/2 of dissociation (high CD28 Ig level, 40 μl/min) (CD28 Ig [3]): 0.93 s
t1/2 of dissociation (high CD28 Ig level, 80 μl/min) (CD28 Ig [3]): 0.84 s
t1/2 of dissociation (low CD28 Ig level, 40 μl/min) (CD28 Ig [3]): 0.69 s
t1/2 of dissociation (low CD28 Ig level, 80 μl/min) (CD28 Ig [3]): 0.64 s
Kd (CTLA-4 Ig (human) [4]): 260 nM
Kd (CD28 Ig [5]): 2500 nM
Kd (CTLA-4 Ig (human) [6]): 380 nM
Kd (CD28 Ig [7]): 4.2 µM
proportion of sCD80 with CTLA-4-binding activity (CTLA-4 Ig (human) [8]): 100%
Kd (CTLA-4 Ig (human) [9]): 420 nM
Kd (CD28 Ig [10]): 4 µM
Substance: soluble recombinant CD80 (sCD80), sCD80his after removal of the carboxy-terminal oligo-histidine tag (domain or fragment)
